{
  "source": "paper PMC4577212",
  "about": "“X-Ray Structure and Mutagenesis Studies of the N-Isopropylammelide Isopropylaminohydrolase, AtzC” (PLoS ONE, 2015)",
  "proteins": {"B1": {"name": "N-isopropylammelide isopropylaminohydrolase AtzC from Pseudomonas sp. strain ADP, His-tagged (enzyme, UniProt O52063 1-403, looked up)", "chain": "MSKDFDLIIRNAYLSEKDSVYDIGIVGDRIIKIEAKIEGTVKDEIDAKGNLVSPGFVDAHTHMDKSFTSTGERLPKFWSRPYTRDAAIEDGLKYYKNATHEEIKRHVIEHAHMQVLHGTLYTRTHVDVDSVAKTKAVEAVLEAKEELKDLIDIQVVAFAQSGFFVDLESESLIRKSLDMGCDLVGGVDPATRENNVEGSLDLCFKLAKEYDVDIDYHIHDIGTVGVYSINRLAQKTIENGYKGRVTTSHAWCFADAPSEWLDEAIPLYKDSGMKFVTCFSSTPPTMPVIKLLEAGINLGCASDNIRDFWVPFGNGDMVQGALIETQRLELKTNRDLGLIWKMITSEGARVLGIEKNYGIEVGKKADLVVLNSLSPQWAIIDQAKRLCVIKNGRIIVKDEVIVA", "notes": "AtzC, N-isopropylammelide isopropylaminohydrolase (E.C. 3.5.99.4), Pseudomonas sp. strain ADP; The tag carries a thrombin site; also called wild-type AtzC; tagged AtzC protein; source: E. coli BL21 (λDE3), purified (Ni-NTA, Superdex 200 SEC); not shown: His-tag, N-terminal, kept"}, "B2": {"name": "N-isopropylammelide isopropylaminohydrolase AtzC from Pseudomonas sp. strain ADP, thrombin-treated (His-tag removed) (enzyme, UniProt O52063 1-403, looked up)", "chain": "B1 chain", "notes": "AtzC, N-isopropylammelide isopropylaminohydrolase (E.C. 3.5.99.4), Pseudomonas sp. strain ADP; unmodified atzC gene (GenBank U66917.2) in pETCC2; tag removed by thrombin in the crystallisation sample without further purification; One Zn2+ ion per monomer; malonate in the active site of the crystal; also called WT; native protein; source: E. coli BL21 (λDE3), purified (Ni-NTA, Superdex 200 SEC), …"}},
  "key": {"[1]": {"target": "the molecule itself", "experiment": "SEC; Superdex 200 prep-grade, 130 mL column, 50 mM TRIS pH 7.5, 100 mM NaCl; native molecular mass of ~210 kDa"}, "[2]": {"target": "the molecule itself", "experiment": "crystal structure; thrombin-treated protein, 2.4 M sodium malonate pH 7; space group C2, half of the tetramer in the asymmetric unit; 1.84 Å; oligomer assessed with PISA"}},
  "data": [
    {"protein": "B1", "values": [
      {"measurement": "stoichiometry N", "setting": "[1]", "value": 4}
    ]},
    {"protein": "B2", "values": [
      {"measurement": "stoichiometry N", "setting": "[2]", "value": 4}
    ]}
  ]
}
